The values below come from publication PMC3510498, “RecOR complex including RecR N-N dimer and RecO monomer displays a high affinity for ssDNA”.

Usually Kd stands for the concentration at which binding is half-saturated. A lower Kd goes with a tighter complex.

One data set deals with TTERecR (Thermoanaerobacter tengcongensis MB4, UniProt Q8RDI4 1-199). The data set can be described thus: SPR; SPR: 20 mM HEPES pH 7.4, 200 mM NaCl, 0.005% Tween 20, 25 C, SA chip; EMSA: 20 mM HEPES pH 7.4, 200 mM NaCl, 25 C, 30 min, 2 uM DNA.
For another data set, the target named is TTERecR;TTERecO (Thermoanaerobacter tengcongensis …, UniProt Q8RDI4;Q8RB48 1-199;1-247, |). The data set is described as above.
The next data set concerns the target TTERecR P16G;TTERecO (Thermoanaerobacter tengcongensis …, UniProt Q8RDI4;Q8RB48 1-199;1-247, P19G|). The data set can be described thus: SPR; as strong as RecOR; SPR: 20 mM HEPES pH 7.4, 200 mM NaCl, 0.005% Tween 20, 25 C, SA chip; EMSA: 20 mM HEPES pH 7.4, 200 mM NaCl, 25 C, 30 min, 2 uM DNA. (SPR reads the build-up and loss of mass on a sensor chip optically.)

A further data set has as its target TTERecR R25G;TTERecO (Thermoanaerobacter tengcongensis …, UniProt Q8RDI4;Q8RB48 1-199;1-247, R28G|). The description is as above.
For the next data set, the target named is TTERecO (Thermoanaerobacter tengcongensis MB4, UniProt Q8RB48 1-247). The data set can be described thus: EMSA; 10 uM protein, 2 uM DNA; SPR: 20 mM HEPES pH 7.4, 200 mM NaCl, 0.005% Tween 20, 25 C, SA chip; EMSA: 20 mM HEPES pH 7.4, 200 mM NaCl, 25 C, 30 min, 2 uM DNA. Conditions: protein: recombinant; tags: N-terminal His6; label: 5' biotin (SPR).
The target in a further data set is TTERecR R25G (Thermoanaerobacter tengcongensis MB4, UniProt Q8RDI4 1-199, R28G). The experiment in a line: SPR; SPR: 20 mM HEPES pH 7.4, 200 mM NaCl, 0.005% Tween 20, 25 C, SA chip; EMSA: 20 mM HEPES pH 7.4, 200 mM NaCl, 25 C, 30 min, 2 uM DNA.
The target of the next data set is TTERecR P16G (Thermoanaerobacter tengcongensis MB4, UniProt Q8RDI4 1-199, P19G). The description is as above.

B1: 60 mer ssDNA (ssDNA)
DNA: ATAAATATCGATGTTAAAGAGGATAAGATTTATAAAATAGCTTCTTATTTTCCTGTAGTA
With B1, the binding result with TTERecR is given as “no binding”; with TTERecR P16G;TTERecO, “binds”; with TTERecR R25G;TTERecO it was “binds”; in the data set with TTERecO it was “no binding”. Further, the Kd with TTERecR;TTERecO is 0.931 nM.

B2: 60 mer dsDNA (dsDNA)
DNA 1: B1 DNA
DNA 2: TACTACAGGAAAATAAGAAGCTATTTTATAAATCTTATCCTCTTTAACATCGATATTTAT
Regarding B2, the Kd with TTERecR was 24800 nM; with TTERecR;TTERecO, 26.4 nM. The binding result is “no binding” with TTERecR R25G, “no binding” with TTERecR P16G, “binds” with TTERecR P16G;TTERecO and “binds” with TTERecR R25G;TTERecO.
